Measurements from article doi:10.1101/2022.09.08.506998.

Biological target: full-length KIT(T417I,Δ418-419) (kinase-inactive K623A) (human)
Test: cryo-EM structure

full-length KIT(T417I,Δ418-419) (kinase-inactive K623A) (receptor)
stoichiometry N: 2
